Experimental data as given in US20110262929A1 (FORERUNNER PHARMA RESEARCH, published 2011).

T1: C-terminal V5 tagged mouse HS6ST2 (mHS6ST2_ctV5), expressed in CHO DG44 cells (mouse, UniProt Q80UW0 148-612)
T1 construct: also called mHS6ST2_ctV5_CHO; mouse HS6ST2 transcript variant 2
T1 sequence: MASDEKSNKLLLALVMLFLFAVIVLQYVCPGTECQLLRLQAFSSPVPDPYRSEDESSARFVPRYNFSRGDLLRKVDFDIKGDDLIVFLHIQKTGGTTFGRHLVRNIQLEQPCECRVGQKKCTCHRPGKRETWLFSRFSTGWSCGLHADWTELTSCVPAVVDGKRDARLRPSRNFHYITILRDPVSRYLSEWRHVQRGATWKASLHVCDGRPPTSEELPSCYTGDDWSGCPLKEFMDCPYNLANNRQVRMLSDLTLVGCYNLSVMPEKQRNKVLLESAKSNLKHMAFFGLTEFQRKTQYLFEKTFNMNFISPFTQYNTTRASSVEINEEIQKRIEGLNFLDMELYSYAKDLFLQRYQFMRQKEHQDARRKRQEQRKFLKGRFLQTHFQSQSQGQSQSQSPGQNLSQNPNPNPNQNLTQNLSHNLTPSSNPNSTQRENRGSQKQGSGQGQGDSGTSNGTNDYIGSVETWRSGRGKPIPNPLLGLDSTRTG

T2: C-terminal V5 tagged HS6ST2_N-long (HS6ST2_N-long_ctV5), expressed in CHO DG44 cells (human, UniProt Q96MM7 1-605)
T2 construct: On cells in flow cytometry; also called Q96MM7-1
T2 sequence: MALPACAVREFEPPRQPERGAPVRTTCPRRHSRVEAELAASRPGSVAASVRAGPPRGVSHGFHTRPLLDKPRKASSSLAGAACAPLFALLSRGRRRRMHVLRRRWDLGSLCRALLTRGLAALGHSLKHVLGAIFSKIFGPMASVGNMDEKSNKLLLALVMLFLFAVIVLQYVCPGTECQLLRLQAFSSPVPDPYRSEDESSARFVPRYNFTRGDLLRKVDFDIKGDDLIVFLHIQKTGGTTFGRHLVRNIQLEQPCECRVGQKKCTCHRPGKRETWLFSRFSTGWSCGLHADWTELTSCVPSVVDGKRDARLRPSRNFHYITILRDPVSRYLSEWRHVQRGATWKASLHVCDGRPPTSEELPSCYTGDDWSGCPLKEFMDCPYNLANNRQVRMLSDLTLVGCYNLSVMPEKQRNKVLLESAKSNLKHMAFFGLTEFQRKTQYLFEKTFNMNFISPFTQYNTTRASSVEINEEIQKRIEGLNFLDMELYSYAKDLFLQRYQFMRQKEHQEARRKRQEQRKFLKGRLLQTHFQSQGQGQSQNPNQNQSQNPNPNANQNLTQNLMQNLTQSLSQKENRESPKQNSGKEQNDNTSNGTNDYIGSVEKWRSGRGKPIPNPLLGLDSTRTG

T3: GST_HS6ST2_C2 (human, UniProt Q96MM7 525-605)
T3 construct: Expressed in E. coli BL21 (DE3); whole cell lysate blotted after SDS-PAGE; also called GST fusion of amino acids 379-459 of HS6ST2_N-short; not shown: N-terminal glutathione S-transferase (GST) of vector pGEX-6P-1, with the vector's linker
T3 sequence: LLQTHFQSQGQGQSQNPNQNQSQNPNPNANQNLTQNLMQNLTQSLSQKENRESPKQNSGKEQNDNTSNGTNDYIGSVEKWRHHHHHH

T4: C-terminal V5 tagged HS6ST2_N-short (HS6ST2_N-short_ctV5), expressed in CHO DG44 cells (human, UniProt Q96MM7 147-605)
T4 construct: also called Q96MM7-2
T4 sequence: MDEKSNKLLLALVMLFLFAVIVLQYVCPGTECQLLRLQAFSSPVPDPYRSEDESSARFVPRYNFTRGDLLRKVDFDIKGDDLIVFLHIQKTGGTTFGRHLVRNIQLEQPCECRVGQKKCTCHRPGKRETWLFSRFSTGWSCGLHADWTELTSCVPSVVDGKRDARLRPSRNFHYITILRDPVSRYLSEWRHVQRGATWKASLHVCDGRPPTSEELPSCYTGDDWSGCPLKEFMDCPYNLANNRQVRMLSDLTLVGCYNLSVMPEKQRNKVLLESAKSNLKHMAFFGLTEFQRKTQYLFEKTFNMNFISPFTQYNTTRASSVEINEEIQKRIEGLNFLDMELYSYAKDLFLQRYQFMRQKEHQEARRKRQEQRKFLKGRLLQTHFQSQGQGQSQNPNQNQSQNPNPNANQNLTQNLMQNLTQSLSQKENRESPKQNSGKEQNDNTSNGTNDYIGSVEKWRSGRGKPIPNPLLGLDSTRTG

T5: GST_HS6ST2_N (human, UniProt Q96MM7 170-321)
T5 construct: Expressed in E. coli BL21 (DE3); whole cell lysate blotted after SDS-PAGE; also called GST fusion of amino acids 24-175 of HS6ST2_N-short; not shown: N-terminal glutathione S-transferase (GST) of vector pGEX-6P-1, with the vector's linker
T5 sequence: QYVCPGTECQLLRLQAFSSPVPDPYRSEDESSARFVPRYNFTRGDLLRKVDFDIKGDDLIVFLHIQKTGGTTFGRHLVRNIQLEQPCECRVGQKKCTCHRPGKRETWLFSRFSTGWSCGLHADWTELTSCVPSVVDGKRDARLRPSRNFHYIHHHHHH

B1: anti-HS6ST2 antibody B5 (antibody, mouse IgG1, V domains shown)
VH: EVKLVESGGGLVKSGGSLKLSCVVSGFTFSRYAMSWVRQTPEKRLEWVASIVSGDKTYYPDSVKGRFTISRDNARNILYLQMSSLRSEDTAMYYCTRELGYFDVWGAGTTVTVSS
VL: DVVMTQTPLSLPVSLGDQASISCRSSQSLVHSNGNTYLHWYLQKPGQSPKLLIYKVSNRFSGVPDRFSGSGSGTDFTLKISRVEAEDLGVYFCSQSIHVPPLTFGAGTKLELK
notes: also called clone B5; B5-biotin
B2: anti-HS6ST2 antibody A10 (antibody, mouse IgG1, V domains shown)
VH: EVQLQQSGAELVKPGASVKLSCTASGFNIKDTYMHWVKQRPEQGLEWIGRIDPANGNTKFDPKFQGKASITADTSSNTAYLQLSSLTSEDTAVYYCATNLLRAMDYWGQGTSVTVSS
VL: DIVMSQSPSSLTVSVGEKVTMSCKSSQSLLYSSNQKNYLAWCQQIPGQSPKLLIYWASTRESGVPDRFAGSGSGTDFTLTISSVKAEDLAVYYCLQYFTYPFTFGSGTKLEIK
notes: also called clone A10
B3: anti-HS6ST2 antibody B6 (antibody, mouse IgG1, V domains shown)
VH: EVQLQQSGAELVRSGASVKLSCTASGFNIKDYYMHWVKQRPEQGLEWIGWIDPDNGDTEYAPKFQGKATMTADTSSNTAYLQLSSLTSEDTAVYYCNAGNGNYWFAYWGQGTLVTVSA
VL: DVVMTQTPLSLPVSLGDQASISCRSSQSLVHSNGNTYLHWNLQKPGQSPKLLIYKVSNRFSGVPDRFSGSGSGTDFTLKISRVEAEDLGVYFCSQTTLVPYTFGGGTKLEIK
notes: also called clone B6
B4: anti-HS6ST2 antibody C10 (antibody, mouse IgG1, V domains shown)
VH: QVQLHQPGSVLVRPGASVKLSCKASGYTFTDSWMHWAKQRPGQGLEWIGEIRPNSGKTNYNEKFKGKATLTVDTSSSTAYVDLRSLTSEDSAVYYCVRTYMSHFDYWGQGTTLTVSS
VL: DIVMTQAAFSNPVTLGTSASISCRSSKSLLHSNGITYLYWYLQKPGQSPQLLIYQMSNLAPGVPDRVSSSGSGSDFTLRISRVEAEDVGVYYCAQNLELPFTFGSGTRLEIK
notes: also called clone C10

Experiments:
[1] = biological target: T1, C-terminal V5 tagged mouse HS6ST2 …; experiment: flow cytometry on mHS6ST2_ctV5_CHO cells
Description: (§1) Binding of the anti-HS6ST2 antibodies prepared in Example 2 to mHS6ST2 was evaluated by flow cytometry. The cells used were mHS6ST2_ctV5_CHO, HS6ST2_N-short_ctV5_CHO as a positive control, and the CHO DG44 cell line as a negative control.
(§2) Each anti-HS6ST2 antibody or mouse IgG1 (mIgG1, BD Biosciences Pharmingen) as a negative control was added to a final concentration of 2 μg/mL into 96-well U-bottom plates (Becton Dickinson) containing 5×10⁴ cells suspended in PBS (FACS buffer) supplemented with 0.5% bovine serum albumin and 0.1% NaN₃. After reaction on ice for 1 hour, the cells were washed with FACS buffer. Then, an FITC-labeled anti-mouse antibody (Goat F(ab′)₂ Fragment Anti-mouse IgG (H+L)-FITC, Beckman Coulter) was added as a secondary antibody, and the mixture was reacted on ice for 1 hour. The cells were washed with FACS buffer, and then suspended in FACS buffer containing 10 μg/mL propidium iodide (PI) (Sigma) and assayed by a flow cytometer (FACS Calibur, Becton Dickinson). The assay data were analyzed by CELLQuest software (Becton Dickinson), and the geo-mean of FITC fluorescent intensity was calculated for the PI-negative population of viable cells.

[2] = biological target: T2, C-terminal V5 tagged HS6ST2_N-long …; experiment: flow cytometry on HS6ST2_N-long_ctV5_CHO cells
Description: as §2
Binding activity of the anti-HS6ST2 antibodies prepared in Example 2 to HS6ST2_N-long was evaluated by flow cytometry. The cells used were HS6ST2_N-long_ctV5_CHO cells and HS6ST2_N-short_{—} ctV5_CHO cells as a positive control, and evaluated in the same manner as in Example 3. The primary antibodies were used at a concentration of 10 μg/mL.

[3] = biological target: T3, GST_HS6ST2_C2; experiment: Western blot of E. coli whole cell lysate, antibody 10 µg/mL
Description: (§3) GST_HS6ST2_N, GST_HS6ST2_mid, GST_HS6ST2_C, GST_HS6ST2_C1 and GST_HS6ST2_C2 were expressed in BL21 (DE3) Competent Cells (Takara Bio), and the whole cell lysates were resolved by SDS-PAGE electrophoresis and then transferred to PVDF membranes (Immobilon-P, Millipore) and Western blotted with the anti-HS6ST2 antibodies. The anti-HS6ST2 antibodies were used at 10 μg/mL, while the secondary antibody (HRP-anti mIgG, GE Healthcare) was used as a 3000-fold dilution, and blots were detected with ECL Western Blotting Detection Reagents (GE Healthcare). As a result, the anti-HS6ST2 antibodies A1, A10, B5, B6 and C8 bound to GST_HS6ST2_C2, A6 bound to GST_HS6ST2_C1, and C10 bound to GST_HS6ST2_N.

[4] = biological target: T4, C-terminal V5 tagged HS6ST2_N-short …; experiment: flow cytometry on HS6ST2_N-short_ctV5_CHO cells, antibody 2 µg/mL
Description: as §1, §2

[5] = biological target: T1, C-terminal V5 tagged mouse HS6ST2 …; experiment: flow cytometry on mHS6ST2_ctV5_CHO cells, antibody 2 µg/mL
Description: as §1, §2

[6] = biological target: T5, GST_HS6ST2_N; experiment: Western blot of E. coli whole cell lysate, antibody 10 µg/mL
Description: as §3

Binder | binding result [1] | binding result [2] | binding result [3] | binding result [4] | binding result [5] | binding result [6]
B1 | no binding (tested: 2 µg/mL) | binds | binds | binds |  | 
B2 | no binding (tested: 2 µg/mL) | binds | binds | binds |  | 
B3 | no binding (tested: 2 µg/mL) | binds | binds | binds |  | 
B4 |  | binds |  | binds | binds | binds
